{"source": "paper PMC9288159", "about": "“Identification of a guanine-specific pocket in the protein N of SARS-CoV-2”", "target": "SARS-CoV-2 N protein C-terminal domain (NCTD) (SARS-CoV-2, UniProt P0DTC9 256-364)", "test": "EMSA; […]; binding buffer not stated ([…]", "settings": "protein: recombinant; tags: N-terminal His6-TEV site (pET28a); chain copies: 2; label: 5' IRDye-800CW"}
{"binder": "CGGUUUCGCCG (ssRNA)", "note": "[Oligo-G (SL5a apical region)]", "values": [{"measurement": "Kd", "result": "32 ± 5", "unit": "nM"}]}
